The values below come from article PMC4112721 (2013).

One may read the koff as a measure of how fast the partners let go of each other. Higher therefore signals fast dissociation.

The assay concerns the target HIV-1 envelope glycoprotein gp120 IIIB (HIV-1 (isolate IIIB), UniProt P04578 33-511). Description: SPR. A general note: In SPR one partner is held on a chip, and binding of the other changes the refractive index at the surface.

B1: VRC01 from stably transformed (transgenic) Nicotiana tabacum plants (antibody, V domains shown)
VH: QVQLVQSGGQMKKPGESMRISCRASGYEFIDCTLNWIRLAPGKRPEWMGWLKPRGGAVNYARPLQGRVTMTRDVYSDTAFLELRSLTVDDTAVYFCTRGKNCDYNWDFEHWGRGTPVIVSS
VL: EIVLTQSPGTLSLSPGETAIISCRTSQYGSLAWYQQRPGQAPRLVIYSGSTRAAGIPDRFSGSRWGPDYNLTISNLESGDFGVYYCQQYEFFGQGTKVQVD
modifications: N-glycan at N297 in the CH2 region (glycopeptide […]), GnGnXF^3 as the major glycan structure | N-glycan in the FR3 of the VL region (glycopeptide […]), GnGnXF^3 as the major glycan structure
Consider B1, for which the dissociation rate constant (koff) came out at 0.000126 s⁻¹.

B2: VRC01 from HEK cells (antibody, V domains shown)
VH: QVQLVQSGGQMKKPGESMRISCRASGYEFIDCTLNWIRLAPGKRPEWMGWLKPRGGAVNYARPLQGRVTMTRDVYSDTAFLELRSLTVDDTAVYFCTRGKNCDYNWDFEHWGRGTPVIVSS
VL: EIVLTQSPGTLSLSPGETAIISCRTSQYGSLAWYQQRPGQAPRLVIYSGSTRAAGIPDRFSGSRWGPDYNLTISNLESGDFGVYYCQQYEFFGQGTKVQVD
modifications: N-glycan at N297 in the CH2 region (glycopeptide […]), GnGnF^6 as the predominant glycan structure | N-glycan in the FR3 of the VL region (glycopeptide […]), at least ten glycan structures
Consider B2, for which the koff turned out to be 5.6e-05 s⁻¹.

B3: VRC01 from transiently transformed Nicotiana benthamiana plants (antibody, V domains shown)
VH: QVQLVQSGGQMKKPGESMRISCRASGYEFIDCTLNWIRLAPGKRPEWMGWLKPRGGAVNYARPLQGRVTMTRDVYSDTAFLELRSLTVDDTAVYFCTRGKNCDYNWDFEHWGRGTPVIVSS
VL: EIVLTQSPGTLSLSPGETAIISCRTSQYGSLAWYQQRPGQAPRLVIYSGSTRAAGIPDRFSGSRWGPDYNLTISNLESGDFGVYYCQQYEFFGQGTKVQVD
modifications: N-glycan at N297 in the CH2 region (glycopeptide […]), GnGnXF^3 as the major glycan structure | N-glycan in the FR3 of the VL region (glycopeptide […]), GnGnXF^3 as the major glycan structure
B3 had a koff of 0.000159 s⁻¹.
